US20070148774A1

Assays:
[1] = molecular target: bovine thyroglobulin (bovine) (UniProt P01267); test: phage ELISA, 200 ug/ml thyroglobulin coated
[2] = molecular target: fd h-PDGFB-R phage (extracellular domain of the human receptor for PDGF isoform BB displayed on fd phage) (human; bacteriophage fd) (UniProt P09619); test: displacement of 125I-PDGF-BB from receptor phage, immunoprecipitation
fd h-PDGFB-R phage (extracellular domain of the human receptor for PDGF isoform BB displayed on fd phage) (human; bacteriophage fd), sequence (P09619 33-531, form in doubt): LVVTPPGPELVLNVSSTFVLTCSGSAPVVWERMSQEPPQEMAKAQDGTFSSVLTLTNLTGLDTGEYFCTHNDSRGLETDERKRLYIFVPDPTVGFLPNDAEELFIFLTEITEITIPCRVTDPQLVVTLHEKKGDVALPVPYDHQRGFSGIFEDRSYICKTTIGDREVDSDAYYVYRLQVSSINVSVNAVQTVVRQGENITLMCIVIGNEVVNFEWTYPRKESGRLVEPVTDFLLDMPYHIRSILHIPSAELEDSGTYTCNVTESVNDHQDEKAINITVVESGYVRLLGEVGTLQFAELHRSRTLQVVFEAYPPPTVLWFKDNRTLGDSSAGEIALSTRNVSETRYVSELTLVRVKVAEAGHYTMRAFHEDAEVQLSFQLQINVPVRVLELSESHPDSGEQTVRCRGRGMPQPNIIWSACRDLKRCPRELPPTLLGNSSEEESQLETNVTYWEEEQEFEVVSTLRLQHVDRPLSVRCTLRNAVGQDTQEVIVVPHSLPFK

bovine thyroglobulin (bovine), sequence (P01267 20-2769 limits assumed): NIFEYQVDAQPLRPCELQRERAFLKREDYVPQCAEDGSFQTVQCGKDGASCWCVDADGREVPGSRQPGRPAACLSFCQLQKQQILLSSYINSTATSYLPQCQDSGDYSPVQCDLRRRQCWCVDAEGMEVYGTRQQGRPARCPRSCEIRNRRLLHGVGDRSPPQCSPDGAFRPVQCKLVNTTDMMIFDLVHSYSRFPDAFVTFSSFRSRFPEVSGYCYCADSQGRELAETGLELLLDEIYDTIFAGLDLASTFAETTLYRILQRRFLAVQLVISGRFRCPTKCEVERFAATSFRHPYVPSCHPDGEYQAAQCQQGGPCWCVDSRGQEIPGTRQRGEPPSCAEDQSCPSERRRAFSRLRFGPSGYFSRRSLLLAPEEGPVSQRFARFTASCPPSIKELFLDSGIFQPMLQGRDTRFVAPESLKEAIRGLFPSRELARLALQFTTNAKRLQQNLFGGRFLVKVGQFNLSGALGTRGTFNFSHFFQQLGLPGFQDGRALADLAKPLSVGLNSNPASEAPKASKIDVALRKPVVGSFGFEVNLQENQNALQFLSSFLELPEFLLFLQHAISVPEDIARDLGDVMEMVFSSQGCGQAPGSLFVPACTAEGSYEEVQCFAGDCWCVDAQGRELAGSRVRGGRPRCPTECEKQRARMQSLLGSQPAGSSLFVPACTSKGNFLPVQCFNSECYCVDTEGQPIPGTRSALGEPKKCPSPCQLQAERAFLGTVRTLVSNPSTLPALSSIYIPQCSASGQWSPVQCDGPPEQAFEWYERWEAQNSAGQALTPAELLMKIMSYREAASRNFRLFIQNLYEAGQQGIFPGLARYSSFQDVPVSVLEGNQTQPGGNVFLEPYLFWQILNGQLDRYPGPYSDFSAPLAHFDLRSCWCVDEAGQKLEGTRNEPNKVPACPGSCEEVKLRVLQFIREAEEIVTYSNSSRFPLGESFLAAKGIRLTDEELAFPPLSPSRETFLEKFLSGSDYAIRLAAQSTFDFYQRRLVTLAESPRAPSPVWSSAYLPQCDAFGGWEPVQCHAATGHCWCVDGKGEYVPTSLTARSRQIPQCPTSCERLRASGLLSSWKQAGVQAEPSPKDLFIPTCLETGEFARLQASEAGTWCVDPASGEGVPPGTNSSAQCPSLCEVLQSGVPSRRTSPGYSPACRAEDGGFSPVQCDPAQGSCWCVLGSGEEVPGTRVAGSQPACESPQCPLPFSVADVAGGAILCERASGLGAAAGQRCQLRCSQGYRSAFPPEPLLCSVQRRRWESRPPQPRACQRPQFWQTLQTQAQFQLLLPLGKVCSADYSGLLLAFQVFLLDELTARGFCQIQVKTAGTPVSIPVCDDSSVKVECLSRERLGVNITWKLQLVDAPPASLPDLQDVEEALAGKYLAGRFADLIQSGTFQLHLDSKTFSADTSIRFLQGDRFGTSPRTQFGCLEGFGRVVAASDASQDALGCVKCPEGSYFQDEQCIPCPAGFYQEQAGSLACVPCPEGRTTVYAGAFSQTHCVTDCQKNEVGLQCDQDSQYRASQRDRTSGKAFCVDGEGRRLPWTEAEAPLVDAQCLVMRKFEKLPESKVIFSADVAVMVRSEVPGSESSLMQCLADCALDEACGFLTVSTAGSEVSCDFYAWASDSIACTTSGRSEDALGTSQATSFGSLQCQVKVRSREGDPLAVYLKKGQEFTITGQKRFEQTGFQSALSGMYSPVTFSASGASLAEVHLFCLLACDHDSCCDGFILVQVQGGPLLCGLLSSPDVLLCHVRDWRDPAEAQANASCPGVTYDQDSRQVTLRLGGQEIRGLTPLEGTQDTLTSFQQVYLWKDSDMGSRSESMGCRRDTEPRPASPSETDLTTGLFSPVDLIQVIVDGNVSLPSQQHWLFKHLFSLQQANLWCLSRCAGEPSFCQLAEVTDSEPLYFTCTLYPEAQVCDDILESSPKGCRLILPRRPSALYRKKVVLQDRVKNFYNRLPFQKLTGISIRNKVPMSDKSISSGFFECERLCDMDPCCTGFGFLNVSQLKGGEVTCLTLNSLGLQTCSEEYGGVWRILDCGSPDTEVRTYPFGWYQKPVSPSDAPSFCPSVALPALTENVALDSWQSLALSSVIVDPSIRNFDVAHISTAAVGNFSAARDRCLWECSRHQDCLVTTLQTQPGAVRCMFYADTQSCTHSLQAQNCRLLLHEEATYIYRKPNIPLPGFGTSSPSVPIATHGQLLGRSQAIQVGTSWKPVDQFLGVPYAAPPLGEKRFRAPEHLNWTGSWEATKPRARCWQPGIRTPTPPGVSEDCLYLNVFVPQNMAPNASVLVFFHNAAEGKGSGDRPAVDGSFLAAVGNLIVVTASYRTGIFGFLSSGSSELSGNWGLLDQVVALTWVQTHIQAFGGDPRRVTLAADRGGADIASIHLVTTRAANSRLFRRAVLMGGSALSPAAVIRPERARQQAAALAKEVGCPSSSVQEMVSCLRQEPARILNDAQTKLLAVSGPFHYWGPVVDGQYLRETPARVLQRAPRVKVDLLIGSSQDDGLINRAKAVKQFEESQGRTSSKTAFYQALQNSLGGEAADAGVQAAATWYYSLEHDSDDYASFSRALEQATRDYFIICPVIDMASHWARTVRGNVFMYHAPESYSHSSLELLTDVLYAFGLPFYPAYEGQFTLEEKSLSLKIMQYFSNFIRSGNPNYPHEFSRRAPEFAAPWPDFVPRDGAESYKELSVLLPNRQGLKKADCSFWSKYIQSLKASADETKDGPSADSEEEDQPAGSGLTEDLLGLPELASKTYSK

| Substance | O.D. in ELISA [1] [O.D.] | concentration at which binding of 125I-PDGF-BB was reduced to the control level [2] [nM] |
| --- | --- | --- |
| pCAT-3 non-recombinant vector phagemid particles (from UniProt P03661 19-424) | 0.07 | – |
| unlabelled PDGF-BB (from UniProt P01127 82-190; P01127 82-190) (ligand) | – | 50 |
